Experimental data from US20150259402A1.

Target: Clostridium difficile toxin B (Clostridium difficile) (UniProt P18177)
Assay: cell-based or functional assay

Chain of Clostridium difficile toxin B (Clostridium difficile) (P18177 2-2366 limits assumed): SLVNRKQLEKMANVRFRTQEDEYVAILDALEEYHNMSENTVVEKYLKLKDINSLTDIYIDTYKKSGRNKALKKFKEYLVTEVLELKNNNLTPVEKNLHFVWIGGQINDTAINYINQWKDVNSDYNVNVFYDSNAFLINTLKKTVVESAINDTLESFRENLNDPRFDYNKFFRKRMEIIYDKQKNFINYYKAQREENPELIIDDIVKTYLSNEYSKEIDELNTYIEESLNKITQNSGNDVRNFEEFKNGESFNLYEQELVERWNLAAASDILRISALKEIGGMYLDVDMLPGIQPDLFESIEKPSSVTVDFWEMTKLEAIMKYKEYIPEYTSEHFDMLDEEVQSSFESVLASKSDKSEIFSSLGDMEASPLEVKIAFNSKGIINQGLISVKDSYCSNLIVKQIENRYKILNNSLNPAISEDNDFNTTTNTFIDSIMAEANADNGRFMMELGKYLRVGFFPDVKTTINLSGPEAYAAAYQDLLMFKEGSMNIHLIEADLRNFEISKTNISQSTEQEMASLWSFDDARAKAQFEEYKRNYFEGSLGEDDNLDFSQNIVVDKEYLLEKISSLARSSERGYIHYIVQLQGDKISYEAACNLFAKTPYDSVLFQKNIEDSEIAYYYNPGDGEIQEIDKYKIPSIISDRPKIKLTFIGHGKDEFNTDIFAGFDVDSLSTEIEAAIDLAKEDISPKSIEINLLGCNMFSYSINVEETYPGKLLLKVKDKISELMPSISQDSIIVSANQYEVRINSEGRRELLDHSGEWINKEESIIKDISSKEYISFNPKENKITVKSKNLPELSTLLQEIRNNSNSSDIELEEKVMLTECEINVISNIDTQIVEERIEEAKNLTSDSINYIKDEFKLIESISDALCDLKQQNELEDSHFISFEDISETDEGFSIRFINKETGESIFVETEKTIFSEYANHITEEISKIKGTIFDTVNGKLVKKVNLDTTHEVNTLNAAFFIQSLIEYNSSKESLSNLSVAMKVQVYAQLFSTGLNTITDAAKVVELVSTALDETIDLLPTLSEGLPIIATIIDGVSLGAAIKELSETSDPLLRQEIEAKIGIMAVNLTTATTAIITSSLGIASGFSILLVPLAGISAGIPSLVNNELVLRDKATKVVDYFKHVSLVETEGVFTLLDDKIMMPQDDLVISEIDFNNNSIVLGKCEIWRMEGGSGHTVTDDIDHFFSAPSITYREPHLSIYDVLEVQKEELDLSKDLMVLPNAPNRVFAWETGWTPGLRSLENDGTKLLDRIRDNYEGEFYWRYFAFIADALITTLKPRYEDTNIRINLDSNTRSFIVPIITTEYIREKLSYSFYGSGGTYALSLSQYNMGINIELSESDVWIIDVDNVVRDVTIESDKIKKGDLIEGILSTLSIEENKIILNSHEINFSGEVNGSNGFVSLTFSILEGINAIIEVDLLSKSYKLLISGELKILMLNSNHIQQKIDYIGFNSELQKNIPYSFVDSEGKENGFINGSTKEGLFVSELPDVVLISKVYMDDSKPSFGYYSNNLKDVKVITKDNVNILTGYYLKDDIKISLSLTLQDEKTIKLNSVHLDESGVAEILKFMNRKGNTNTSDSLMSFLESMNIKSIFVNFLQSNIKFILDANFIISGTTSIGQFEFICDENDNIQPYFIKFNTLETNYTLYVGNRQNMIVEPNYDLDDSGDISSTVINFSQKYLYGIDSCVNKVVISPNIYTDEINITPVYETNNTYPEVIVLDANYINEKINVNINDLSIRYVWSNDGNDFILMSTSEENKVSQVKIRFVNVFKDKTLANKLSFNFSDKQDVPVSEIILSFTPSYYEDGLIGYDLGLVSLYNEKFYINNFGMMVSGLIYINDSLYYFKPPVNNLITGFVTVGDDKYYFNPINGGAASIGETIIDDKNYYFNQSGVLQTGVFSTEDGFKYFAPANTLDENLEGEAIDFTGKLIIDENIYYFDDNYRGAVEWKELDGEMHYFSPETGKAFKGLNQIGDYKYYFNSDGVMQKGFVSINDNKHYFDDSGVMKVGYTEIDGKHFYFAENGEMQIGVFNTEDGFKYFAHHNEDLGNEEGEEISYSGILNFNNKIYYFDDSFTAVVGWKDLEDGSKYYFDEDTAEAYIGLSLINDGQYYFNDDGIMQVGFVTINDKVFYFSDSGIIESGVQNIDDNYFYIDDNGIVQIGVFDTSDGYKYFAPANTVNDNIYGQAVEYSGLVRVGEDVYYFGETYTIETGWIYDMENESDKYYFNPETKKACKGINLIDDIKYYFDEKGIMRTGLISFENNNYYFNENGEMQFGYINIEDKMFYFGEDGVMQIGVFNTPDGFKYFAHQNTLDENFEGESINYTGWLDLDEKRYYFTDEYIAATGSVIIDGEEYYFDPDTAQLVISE

## MDX1388 (antibody)
  neutralizing activity (EC50 value), rounding of toxin B-exposed IMR-90 cells: < 0.1 µg/mL
